From US20240191188A1

Target: CD28 on the surface of T cells and PBMCs (human) (UniProt P10747)
Experiment: flow cytometry of live CD3+ cells of the CD28 positive fraction after D-biotin and washing; remaining anti-CD28 Fab monomers were detected with an antibody against the Ig kappa light chain. The same antibody on cells before selection (negative control, no Fab) gives 2.73

Q: How did the % of cells within gate turn out when “αCD28 Fab fragment derived from the monoclonal anti-human CD28 antibody CD28.3, heavy chain carboxy-terminally fused to the Twin-Strep-tag (monomeric)” was run?
A: Its % of cells within gate is 5.91%.
